Biological target: bub1b_human BUB1B (UniProt O60566)
Sequence (O60566 whole entry): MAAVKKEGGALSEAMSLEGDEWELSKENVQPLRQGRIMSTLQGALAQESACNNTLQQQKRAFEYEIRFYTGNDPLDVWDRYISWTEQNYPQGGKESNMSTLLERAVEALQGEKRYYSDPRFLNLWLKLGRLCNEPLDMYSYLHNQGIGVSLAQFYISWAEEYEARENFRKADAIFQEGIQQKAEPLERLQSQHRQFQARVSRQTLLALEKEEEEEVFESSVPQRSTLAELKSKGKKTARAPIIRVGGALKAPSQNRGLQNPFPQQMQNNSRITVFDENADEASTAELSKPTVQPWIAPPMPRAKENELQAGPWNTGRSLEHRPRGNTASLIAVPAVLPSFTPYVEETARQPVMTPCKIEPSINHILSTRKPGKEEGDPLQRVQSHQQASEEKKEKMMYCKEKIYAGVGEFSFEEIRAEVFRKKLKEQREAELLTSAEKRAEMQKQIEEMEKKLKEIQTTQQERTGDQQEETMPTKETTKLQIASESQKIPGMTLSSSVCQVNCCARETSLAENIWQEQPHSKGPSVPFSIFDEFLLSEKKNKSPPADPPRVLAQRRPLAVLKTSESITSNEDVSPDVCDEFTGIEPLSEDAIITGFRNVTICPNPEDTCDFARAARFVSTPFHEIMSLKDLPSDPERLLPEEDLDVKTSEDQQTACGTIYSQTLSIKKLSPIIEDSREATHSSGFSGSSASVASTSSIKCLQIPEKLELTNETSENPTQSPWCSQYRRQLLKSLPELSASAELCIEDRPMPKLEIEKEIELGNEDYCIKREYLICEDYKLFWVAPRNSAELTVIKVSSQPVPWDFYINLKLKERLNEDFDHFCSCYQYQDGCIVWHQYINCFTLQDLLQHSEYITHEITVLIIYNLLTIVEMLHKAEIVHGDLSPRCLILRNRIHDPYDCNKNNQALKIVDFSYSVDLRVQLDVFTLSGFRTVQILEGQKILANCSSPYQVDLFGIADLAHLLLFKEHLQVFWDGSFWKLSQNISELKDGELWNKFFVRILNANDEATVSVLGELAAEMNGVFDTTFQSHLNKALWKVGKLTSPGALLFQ

Row | Substance | effect of a mutation on the interaction
1 | Outer kinetochore KNL1 complex subunit KNL1 (Homo sapiens), Q8NG31-2 I213A;F215A;F218A | disrupting interaction
2 | Outer kinetochore KNL1 complex subunit KNL1 (Homo sapiens), Q8NG31-2 F215A;F218A | disrupting interaction
3 | Outer kinetochore KNL1 complex subunit KNL1 (Homo sapiens), Q8NG31-2 F215A;I219A | disrupting interaction
